{"source": "paper PMC6269467", "about": "(Nature Communications, 2018)", "binders": {"B1": {"name": "αN-catenin actin-binding domain with the helix-1 mutation (αNcat-ABD-H1) (domain or fragment, mouse, UniProt Q61301-2 651-905, looked up)", "chain": "SRTSVQTEDDQLIAGQSAGSGSAQLPQEEKAKIAEQVEIFHQEKSKLDAEVAKWDDSGNDIIVLAKQMCMIMMEMTDFTRGKGPLKNTSDVINAAKKIAEAGSRMDKLARAVADQCPDSACKQDLLAYLQRIALYCHQLNICSKVKAEVQNLGGELIVSGLDSATSLIQAAKNLMNAVVLTVKASYVASTKYQKVYGTAAVNSPVVSWKMKAPEKKPLVKREKPEEFQTRVRRGSQKKHISPVQALSEFKAMDSF", "notes": "The substitution is printed in αN-catenin's own numbers; PDB 4K1O is the wild-type parent; 6DUW (form A) and 6DUY (form B) are this construct; also called αN-catenin ABD-H1; αN-H1; source: E. coli BL21-CodonPlus, purified (glutathione-sepharose, thrombin cleavage, Superdex 75); 15N-labelled in M9 minimal media for NMR; not shown: GST, N-terminal, cleaved"}, "B2": {"name": "αE-catenin actin-binding domain, wild type (αEcat-ABD-WT; residues 652-906) (domain or fragment)", "chain": "SRTSVQTEDDQLIAGQSARAIMAQLPQEQKAKIAEQVASFQEEKSKLDAEVSKWDDSGNDIIVLAKQMCMIMMEMTDFTRGKGPLKNTSDVISAAKKIAEAGSRMDKLGRTIADHCPDSACKQDLLAYLQRIALYCHQLNICSKVKAEVQNLGGELVVSGVDSAMSLIQAAKNLMNAVVQTVKASYVASTKYQKSQGMASLNLPAVSWKMKAPEKKPLVKREKQDETQTKIKRASQKKHVNPVQALSEFKAMDSI", "notes": "source: E. coli BL21-CodonPlus, purified (glutathione-sepharose, thrombin cleavage, Superdex 75); not shown: GST, N-terminal, cleaved"}, "B3": {"name": "αEcat-ABD I792A (domain or fragment)", "chain": "SRTSVQTEDDQLIAGQSARAIMAQLPQEQKAKIAEQVASFQEEKSKLDAEVSKWDDSGNDIIVLAKQMCMIMMEMTDFTRGKGPLKNTSDVISAAKKIAEAGSRMDKLGRTIADHCPDSACKQDLLAYLQRIALYCHQLNACSKVKAEVQNLGGELVVSGVDSAMSLIQAAKNLMNAVVQTVKASYVASTKYQKSQGMASLNLPAVSWKMKAPEKKPLVKREKQDETQTKIKRASQKKHVNPVQALSEFKAMDSI", "notes": "as for B2"}, "B4": {"name": "αEcat-ABD V796A (domain or fragment)", "chain": "SRTSVQTEDDQLIAGQSARAIMAQLPQEQKAKIAEQVASFQEEKSKLDAEVSKWDDSGNDIIVLAKQMCMIMMEMTDFTRGKGPLKNTSDVISAAKKIAEAGSRMDKLGRTIADHCPDSACKQDLLAYLQRIALYCHQLNICSKAKAEVQNLGGELVVSGVDSAMSLIQAAKNLMNAVVQTVKASYVASTKYQKSQGMASLNLPAVSWKMKAPEKKPLVKREKQDETQTKIKRASQKKHVNPVQALSEFKAMDSI", "notes": "as for B2"}, "B5": {"name": "αEcat-ABD V714A (domain or fragment)", "chain": "SRTSVQTEDDQLIAGQSARAIMAQLPQEQKAKIAEQVASFQEEKSKLDAEVSKWDDSGNDIIALAKQMCMIMMEMTDFTRGKGPLKNTSDVISAAKKIAEAGSRMDKLGRTIADHCPDSACKQDLLAYLQRIALYCHQLNICSKVKAEVQNLGGELVVSGVDSAMSLIQAAKNLMNAVVQTVKASYVASTKYQKSQGMASLNLPAVSWKMKAPEKKPLVKREKQDETQTKIKRASQKKHVNPVQALSEFKAMDSI", "notes": "as for B2"}, "B6": {"name": "αEcat-ABD L785A (domain or fragment)", "chain": "SRTSVQTEDDQLIAGQSARAIMAQLPQEQKAKIAEQVASFQEEKSKLDAEVSKWDDSGNDIIVLAKQMCMIMMEMTDFTRGKGPLKNTSDVISAAKKIAEAGSRMDKLGRTIADHCPDSACKQDLLAYLQRIAAYCHQLNICSKVKAEVQNLGGELVVSGVDSAMSLIQAAKNLMNAVVQTVKASYVASTKYQKSQGMASLNLPAVSWKMKAPEKKPLVKREKQDETQTKIKRASQKKHVNPVQALSEFKAMDSI", "notes": "as for B2"}, "B7": {"name": "αEcat-ABD 3A (L785A, I792A and V796A together) (domain or fragment)", "chain": "SRTSVQTEDDQLIAGQSARAIMAQLPQEQKAKIAEQVASFQEEKSKLDAEVSKWDDSGNDIIVLAKQMCMIMMEMTDFTRGKGPLKNTSDVISAAKKIAEAGSRMDKLGRTIADHCPDSACKQDLLAYLQRIAAYCHQLNACSKAKAEVQNLGGELVVSGVDSAMSLIQAAKNLMNAVVQTVKASYVASTKYQKSQGMASLNLPAVSWKMKAPEKKPLVKREKQDETQTKIKRASQKKHVNPVQALSEFKAMDSI", "notes": "as for B2"}, "B8": {"name": "αE-catenin actin-binding domain with the helix-1 mutation (αEcat-ABD-H1; RAIM670-673GSGS) (domain or fragment)", "chain": "SRTSVQTEDDQLIAGQSAGSGSAQLPQEQKAKIAEQVASFQEEKSKLDAEVSKWDDSGNDIIVLAKQMCMIMMEMTDFTRGKGPLKNTSDVISAAKKIAEAGSRMDKLGRTIADHCPDSACKQDLLAYLQRIALYCHQLNICSKVKAEVQNLGGELVVSGVDSAMSLIQAAKNLMNAVVQTVKASYVASTKYQKSQGMASLNLPAVSWKMKAPEKKPLVKREKQDETQTKIKRASQKKHVNPVQALSEFKAMDSI", "notes": "as for B2"}}, "key": {"[1]": {"biological_target": "the molecule itself", "experiment": "crystal structure; αNcat-ABD-H1 crystal forms A (P6522, 2.2 Å) and B (P212121, 2.8 Å), grown at 277 K by vapor diffusion"}, "[2]": {"biological_target": "T1, filamentous actin (F-actin) from rabbit skeletal muscle (rabbit, UniProt P68135 1-377)", "experiment": "BLI; F-actin immobilised on Streptavidin (SA) biosensors through LAbio peptide; αcat-ABD in solution at various concentrations; 26 °C, Octet384; 2 mM Tris-HCl pH 8.0, 0.2 mM ATP, 0.5 mM DTT, 0.1 mM CaCl2, 50 mM KCl, 2 mM MgCl2, 0.1% BSA, 0.02% Tween-20; 2:1 heterogeneous ligand model", "settings": "both partners purified"}, "[3]": {"biological_target": "T1, filamentous actin (F-actin) from rabbit …", "experiment": "co-sedimentation; actin cosedimentation at high RCF: 5 μM ABD and 5 μM actin in 50 μL Buffer-F, 1 h at RT, Airfuge ≥100,000×g 20 min at RT; supernatant and pellet by SDS-PAGE with coomassie, band intensity by ImageJ", "settings": "both partners purified"}, "[4]": {"biological_target": "T1, filamentous actin (F-actin) from rabbit …", "experiment": "BLI; as a2 but Super-Streptavidin (SSA) biosensors with increased streptavidin density, used for αEcat-ABD-H1; 1:1 binding model", "settings": "both partners purified"}}}
{"binder": "B1", "values": [{"measurement": "binding result", "setting": "[1]", "result": "binds"}]}
{"binder": "B2", "values": [{"measurement": "KD1 (2:1 heterogeneous ligand model)", "setting": "[2]", "result": 2, "unit": "µM"}, {"measurement": "KD2 (2:1 heterogeneous ligand model)", "setting": "[2]", "result": 0.3, "unit": "µM"}, {"measurement": "koff1 (2:1 heterogeneous ligand model)", "setting": "[2]", "result": 0.465, "unit": "s⁻¹"}, {"measurement": "koff2 (2:1 heterogeneous ligand model)", "setting": "[2]", "result": 0.00964, "unit": "s⁻¹"}, {"measurement": "kon1 (2:1 heterogeneous ligand model)", "setting": "[2]", "result": 234000, "unit": "M⁻¹ s⁻¹"}, {"measurement": "kon2 (2:1 heterogeneous ligand model)", "setting": "[2]", "result": 31900, "unit": "M⁻¹ s⁻¹"}]}
{"binder": "B3", "values": [{"measurement": "reduction in the amount of ABD cosedimenting with F-actin compared to αEcat-ABD-WT", "setting": "[3]", "result": 36, "unit": "%"}, {"measurement": "KD1 (2:1 heterogeneous ligand model)", "setting": "[2]", "result": 4, "unit": "µM"}, {"measurement": "KD2 (2:1 heterogeneous ligand model)", "setting": "[2]", "result": 0.6, "unit": "µM"}, {"measurement": "koff1 (2:1 heterogeneous ligand model)", "setting": "[2]", "result": 0.945, "unit": "s⁻¹"}, {"measurement": "koff2 (2:1 heterogeneous ligand model)", "setting": "[2]", "result": 0.00881, "unit": "s⁻¹"}, {"measurement": "kon1 (2:1 heterogeneous ligand model)", "setting": "[2]", "result": 234000, "unit": "M⁻¹ s⁻¹"}, {"measurement": "kon2 (2:1 heterogeneous ligand model)", "setting": "[2]", "result": 14500, "unit": "M⁻¹ s⁻¹"}]}
{"binder": "B4", "values": [{"measurement": "reduction in the amount of ABD cosedimenting with F-actin compared to αEcat-ABD-WT", "setting": "[3]", "result": 47, "unit": "%"}, {"measurement": "KD1 (2:1 heterogeneous ligand model)", "setting": "[2]", "result": 3.7, "unit": "µM"}, {"measurement": "KD2 (2:1 heterogeneous ligand model)", "setting": "[2]", "result": 1.8, "unit": "µM"}, {"measurement": "koff1 (2:1 heterogeneous ligand model)", "setting": "[2]", "result": 0.773, "unit": "s⁻¹"}, {"measurement": "koff2 (2:1 heterogeneous ligand model)", "setting": "[2]", "result": 0.0125, "unit": "s⁻¹"}, {"measurement": "kon1 (2:1 heterogeneous ligand model)", "setting": "[2]", "result": 211000, "unit": "M⁻¹ s⁻¹"}, {"measurement": "kon2 (2:1 heterogeneous ligand model)", "setting": "[2]", "result": 6910, "unit": "M⁻¹ s⁻¹"}]}
{"binder": "B5", "values": [{"measurement": "KD1 (2:1 heterogeneous ligand model)", "setting": "[2]", "result": 2.6, "unit": "µM"}, {"measurement": "KD2 (2:1 heterogeneous ligand model)", "setting": "[2]", "result": 0.7, "unit": "µM"}, {"measurement": "koff1 (2:1 heterogeneous ligand model)", "setting": "[2]", "result": 0.568, "unit": "s⁻¹"}, {"measurement": "koff2 (2:1 heterogeneous ligand model)", "setting": "[2]", "result": 0.0135, "unit": "s⁻¹"}, {"measurement": "kon1 (2:1 heterogeneous ligand model)", "setting": "[2]", "result": 221000, "unit": "M⁻¹ s⁻¹"}, {"measurement": "kon2 (2:1 heterogeneous ligand model)", "setting": "[2]", "result": 20100, "unit": "M⁻¹ s⁻¹"}]}
{"binder": "B6", "values": [{"measurement": "reduction in the amount of ABD cosedimenting with F-actin compared to αEcat-ABD-WT", "setting": "[3]", "result": 75, "unit": "%"}, {"measurement": "KD1 (2:1 heterogeneous ligand model)", "setting": "[2]", "result": 27.8, "unit": "µM"}, {"measurement": "KD2 (2:1 heterogeneous ligand model)", "setting": "[2]", "result": 4.8, "unit": "µM"}, {"measurement": "koff1 (2:1 heterogeneous ligand model)", "setting": "[2]", "result": 0.69, "unit": "s⁻¹"}, {"measurement": "koff2 (2:1 heterogeneous ligand model)", "setting": "[2]", "result": 0.0107, "unit": "s⁻¹"}, {"measurement": "kon1 (2:1 heterogeneous ligand model)", "setting": "[2]", "result": 24900, "unit": "M⁻¹ s⁻¹"}, {"measurement": "kon2 (2:1 heterogeneous ligand model)", "setting": "[2]", "result": 2210, "unit": "M⁻¹ s⁻¹"}]}
{"binder": "B7", "values": [{"measurement": "reduction in the amount of ABD cosedimenting with F-actin compared to αEcat-ABD-WT", "setting": "[3]", "result": 78, "unit": "%"}, {"measurement": "KD1 (2:1 heterogeneous ligand model)", "setting": "[2]", "result": 38.4, "unit": "µM"}, {"measurement": "KD2 (2:1 heterogeneous ligand model)", "setting": "[2]", "result": 6.1, "unit": "µM"}, {"measurement": "koff1 (2:1 heterogeneous ligand model)", "setting": "[2]", "result": 0.799, "unit": "s⁻¹"}, {"measurement": "koff2 (2:1 heterogeneous ligand model)", "setting": "[2]", "result": 0.00849, "unit": "s⁻¹"}, {"measurement": "kon1 (2:1 heterogeneous ligand model)", "setting": "[2]", "result": 20800, "unit": "M⁻¹ s⁻¹"}, {"measurement": "kon2 (2:1 heterogeneous ligand model)", "setting": "[2]", "result": 1400, "unit": "M⁻¹ s⁻¹"}]}
{"binder": "B8", "values": [{"measurement": "Kd", "setting": "[4]", "result": 580, "unit": "nM"}, {"measurement": "koff", "setting": "[4]", "result": 0.264, "unit": "s⁻¹"}, {"measurement": "kon", "setting": "[4]", "result": 455000, "unit": "M⁻¹ s⁻¹"}]}
